B1: P285A: recombinant mSir2α core domain mutant, residue changed to alanine (protein)
chain: MADEVALALQAAGSPSAAAAMEAASQPADEPLRKRPRRDGPGLGRSPGEPSAAVAPAAAGCEAASAAAPAALWREAAGAAASAEREAPATAVAGDGDNGSGLRREPRAADDFDDDEGEEEDEAAAAAAAAAIGYRDNLLLTDGLLTNGFHSCESDDDDRTSHASSSDWTPRPRIGPYTFVQQHLMIGTDPRTILKDLLPETIPPPELDDMTLWQIVINILSEPPKRKKRKDINTIEDAVKLLQECKKIIVLTGAGVSVSCGIPDFRSRDGIYARLAVDFPDLPDAQAMFDIEYFRKDPRPFFKFAKEIYPGQFQPSLCHKFIALSDKEGKLLRNYTQNIDTLEQVAGIQRILQCHGSFATASCLICKYKVDCEAVRGDIFNQVVPRCPRCPADEPLAIMKPEIVFFGENLPEQFHRAMKYDKDEVDLLIVIGSSLKVRPVALIPSSIPHEVPQILINREPLPHLHFDVELLGDCDVIINELCHRLGGEYAKLCCNPVKLSEITEKPPRPQKELVHLSELPPTPLHISEDSSSPERTVPQDSSVIATLVDQATNNNVNDLEVSESSCVEEKPQEVQTSRNVENINVENPDFKAVGSSTADKNERTSVAETVRKCWPNRLAKEQISKRLEGNQYLFVPPNRYIFHGAEVYSDSEDDVLSSSSCGSNSDSGTCQSPSLEEPLEDESEIEEFYNGLEDDTERPECAGGSGFGADGGDQEVVNEAIATRQELTDVNYPSDKS
modifications: left off: small tags and cut ends
notes: recombinant mSir2α core domain mutant, residue changed to alanine
B2: G253A: recombinant mSir2α core domain mutant, glycine 253 changed to alanine (protein)
chain: MADEVALALQAAGSPSAAAAMEAASQPADEPLRKRPRRDGPGLGRSPGEPSAAVAPAAAGCEAASAAAPAALWREAAGAAASAEREAPATAVAGDGDNGSGLRREPRAADDFDDDEGEEEDEAAAAAAAAAIGYRDNLLLTDGLLTNGFHSCESDDDDRTSHASSSDWTPRPRIGPYTFVQQHLMIGTDPRTILKDLLPETIPPPELDDMTLWQIVINILSEPPKRKKRKDINTIEDAVKLLQECKKIIVLTAAGVSVSCGIPDFRSRDGIYARLAVDFPDLPDPQAMFDIEYFRKDPRPFFKFAKEIYPGQFQPSLCHKFIALSDKEGKLLRNYTQNIDTLEQVAGIQRILQCHGSFATASCLICKYKVDCEAVRGDIFNQVVPRCPRCPADEPLAIMKPEIVFFGENLPEQFHRAMKYDKDEVDLLIVIGSSLKVRPVALIPSSIPHEVPQILINREPLPHLHFDVELLGDCDVIINELCHRLGGEYAKLCCNPVKLSEITEKPPRPQKELVHLSELPPTPLHISEDSSSPERTVPQDSSVIATLVDQATNNNVNDLEVSESSCVEEKPQEVQTSRNVENINVENPDFKAVGSSTADKNERTSVAETVRKCWPNRLAKEQISKRLEGNQYLFVPPNRYIFHGAEVYSDSEDDVLSSSSCGSNSDSGTCQSPSLEEPLEDESEIEEFYNGLEDDTERPECAGGSGFGADGGDQEVVNEAIATRQELTDVNYPSDKS
modifications: left off: small tags and cut ends
notes: recombinant mSir2α core domain mutant, glycine 253 changed to alanine
B3: S257A: recombinant mSir2α core domain mutant, residue changed to alanine (protein)
chain: MADEVALALQAAGSPSAAAAMEAASQPADEPLRKRPRRDGPGLGRSPGEPSAAVAPAAAGCEAASAAAPAALWREAAGAAASAEREAPATAVAGDGDNGSGLRREPRAADDFDDDEGEEEDEAAAAAAAAAIGYRDNLLLTDGLLTNGFHSCESDDDDRTSHASSSDWTPRPRIGPYTFVQQHLMIGTDPRTILKDLLPETIPPPELDDMTLWQIVINILSEPPKRKKRKDINTIEDAVKLLQECKKIIVLTGAGVAVSCGIPDFRSRDGIYARLAVDFPDLPDPQAMFDIEYFRKDPRPFFKFAKEIYPGQFQPSLCHKFIALSDKEGKLLRNYTQNIDTLEQVAGIQRILQCHGSFATASCLICKYKVDCEAVRGDIFNQVVPRCPRCPADEPLAIMKPEIVFFGENLPEQFHRAMKYDKDEVDLLIVIGSSLKVRPVALIPSSIPHEVPQILINREPLPHLHFDVELLGDCDVIINELCHRLGGEYAKLCCNPVKLSEITEKPPRPQKELVHLSELPPTPLHISEDSSSPERTVPQDSSVIATLVDQATNNNVNDLEVSESSCVEEKPQEVQTSRNVENINVENPDFKAVGSSTADKNERTSVAETVRKCWPNRLAKEQISKRLEGNQYLFVPPNRYIFHGAEVYSDSEDDVLSSSSCGSNSDSGTCQSPSLEEPLEDESEIEEFYNGLEDDTERPECAGGSGFGADGGDQEVVNEAIATRQELTDVNYPSDKS
modifications: left off: small tags and cut ends
notes: as for B1
B4: I262A: recombinant mSir2α core domain mutant, residue changed to alanine (protein)
chain: MADEVALALQAAGSPSAAAAMEAASQPADEPLRKRPRRDGPGLGRSPGEPSAAVAPAAAGCEAASAAAPAALWREAAGAAASAEREAPATAVAGDGDNGSGLRREPRAADDFDDDEGEEEDEAAAAAAAAAIGYRDNLLLTDGLLTNGFHSCESDDDDRTSHASSSDWTPRPRIGPYTFVQQHLMIGTDPRTILKDLLPETIPPPELDDMTLWQIVINILSEPPKRKKRKDINTIEDAVKLLQECKKIIVLTGAGVSVSCGAPDFRSRDGIYARLAVDFPDLPDPQAMFDIEYFRKDPRPFFKFAKEIYPGQFQPSLCHKFIALSDKEGKLLRNYTQNIDTLEQVAGIQRILQCHGSFATASCLICKYKVDCEAVRGDIFNQVVPRCPRCPADEPLAIMKPEIVFFGENLPEQFHRAMKYDKDEVDLLIVIGSSLKVRPVALIPSSIPHEVPQILINREPLPHLHFDVELLGDCDVIINELCHRLGGEYAKLCCNPVKLSEITEKPPRPQKELVHLSELPPTPLHISEDSSSPERTVPQDSSVIATLVDQATNNNVNDLEVSESSCVEEKPQEVQTSRNVENINVENPDFKAVGSSTADKNERTSVAETVRKCWPNRLAKEQISKRLEGNQYLFVPPNRYIFHGAEVYSDSEDDVLSSSSCGSNSDSGTCQSPSLEEPLEDESEIEEFYNGLEDDTERPECAGGSGFGADGGDQEVVNEAIATRQELTDVNYPSDKS
modifications: left off: small tags and cut ends
notes: as for B1
B5: G255A: recombinant mSir2α core domain mutant, residue changed to alanine (protein)
chain: MADEVALALQAAGSPSAAAAMEAASQPADEPLRKRPRRDGPGLGRSPGEPSAAVAPAAAGCEAASAAAPAALWREAAGAAASAEREAPATAVAGDGDNGSGLRREPRAADDFDDDEGEEEDEAAAAAAAAAIGYRDNLLLTDGLLTNGFHSCESDDDDRTSHASSSDWTPRPRIGPYTFVQQHLMIGTDPRTILKDLLPETIPPPELDDMTLWQIVINILSEPPKRKKRKDINTIEDAVKLLQECKKIIVLTGAAVSVSCGIPDFRSRDGIYARLAVDFPDLPDPQAMFDIEYFRKDPRPFFKFAKEIYPGQFQPSLCHKFIALSDKEGKLLRNYTQNIDTLEQVAGIQRILQCHGSFATASCLICKYKVDCEAVRGDIFNQVVPRCPRCPADEPLAIMKPEIVFFGENLPEQFHRAMKYDKDEVDLLIVIGSSLKVRPVALIPSSIPHEVPQILINREPLPHLHFDVELLGDCDVIINELCHRLGGEYAKLCCNPVKLSEITEKPPRPQKELVHLSELPPTPLHISEDSSSPERTVPQDSSVIATLVDQATNNNVNDLEVSESSCVEEKPQEVQTSRNVENINVENPDFKAVGSSTADKNERTSVAETVRKCWPNRLAKEQISKRLEGNQYLFVPPNRYIFHGAEVYSDSEDDVLSSSSCGSNSDSGTCQSPSLEEPLEDESEIEEFYNGLEDDTERPECAGGSGFGADGGDQEVVNEAIATRQELTDVNYPSDKS
modifications: left off: small tags and cut ends
notes: as for B1

These molecules were tested on histone H2B (assay: ADP-ribosylation activity of wild type and mutant recombinant mSir2α proteins on histones). Conditions: 10 μg recombinant protein; H2B radioactivity, wild type = 100%.
Format: biochemical, calf
Protocol: Site-directed mutagenesis of mSIR2α core domain was performed with the GeneEditor™ system (Promega, Madison, Wis.) according to the procedure provided by the manufacturer. The mutant recombinant proteins were prepared in the same way as described above.
The typical reaction was performed in 50 or 100 μl of the buffer containing 5 mM Tris-HCl [pH8.0 or 9.0], 4 mM MgCl2, 0.2 mM DTT, 1 μM cold β-NAD^+ (SIGMA®) and 8 μCi nicotinamide adenine dinucleotide 5′[α-^32P]triphosphate (NAD) as a donor of ADP-ribose (˜1000 Ci/mmol, Amersham Pharmacia Biotech). To check the sensitivity to poly- or mono-ADP-ribosylation inhibitors, 3-aminobenzamide (ICN Pharmaceuticals, CA), benzamide, novobiocin and coumermycin A1 (SIGMA®) were added to the reactions prior to adding Sir2 proteins, respectively. The wild type or mutant recombinant proteins (0.5-1 μg for ySir2p and 10 μg of mSir2α) were added with 4 μg of each histone purchased from Roche Molecular Biochemicals (Indianapolis, Ind.). For the peptide experiments, 5-10 μg of unacetylated or acetylated N-terminal tail peptides (amino acids 1-20) of H3 and H4 purchased from Upstate Biotechnology™ (Lake Placid, N.Y.) were used as substrates of the yeast and mouse Sir2 recombinant proteins.
To analyze histone modification, 25 μl of 100% trichloroacetic acid (TCA) solution was mixed to the reaction mixture and left on ice for 15 min. The protein precipitates were centrifuged at 4° C. and washed with 5 or 20% TCA solution twice. The pellets were dissolved in 15 μl of Leammli's sample buffer and boiled for 1.5 min. The proteins were electrophoresed in a 10-20% gradient SDS-PAGE gel. The gel was stained with COOMASSIE® Brilliant Blue R-250 (GibcoBRL Life Technologies™, Frederick, Md.) to check equal loading of histones, dried, and exposed to KODAK® X-OMAT film.
Aliquots of recombinant protein (10 μg) of the wild type recombinant mSir2α (WT), the pET control pET, and the mutant proteins (G253A, G255A, S257A, I262A, F265A, R266A, G270A, P285A, T336A, H355A) were incubated with H2B or H3. […] All of the mutations of highly conserved residues dramatically affected the mono-ADP-ribosylation activity of mSir2α (FIG. 6B). The results were similar using H2B or H3.
The radioactivity of H2B modified by the wild type is assigned to 100% and other data were normalized according to the wild type activity and blots quantitated by Phosphorimaging. The averages and the standard deviations were calculated from two independent experiments. In the core domain of ySir2p, mutations on highly conserved residues also affected the mono-ADP-ribosylation activity. Therefore, the core domain of Sir2 proteins contain the catalytic activity of mono-ADP-ribosylation and the evolutionarily conserved residues in the core domain are essential for this activity.
In the case of B1, the “mono-ADP-ribosylation activity compared to the wild type activity” value is reported as 5%. For B2, the “mono-ADP-ribosylation activity compared to the wild type activity” value was “completely abolished the activity”. For B3, the “mono-ADP-ribosylation activity compared to the wild type activity” value was “completely abolished the activity”. B4 was tested, and the “mono-ADP-ribosylation activity compared to the wild type activity” value was “completely abolished the activity”. With B5 the “mono-ADP-ribosylation activity compared to the wild type activity” value was “completely abolished the activity”.

Source: patent publication US8642284B1, “Methods for identifying agents that alter NAD-dependent deacetylation activity of a SIR2 protein” (Massachusetts Institute of Technology, priority 1999, dated 2014)
